Test results as given in patent US20240182536A1 (MURAL ONCOLOGY, published 2024).
Changes are numbered by the printed parent chain. Names may count otherwise.

T1: IL-18 binding protein (IL-18BP) (UniProt O95998 31-194)
T1 sequence (looked up): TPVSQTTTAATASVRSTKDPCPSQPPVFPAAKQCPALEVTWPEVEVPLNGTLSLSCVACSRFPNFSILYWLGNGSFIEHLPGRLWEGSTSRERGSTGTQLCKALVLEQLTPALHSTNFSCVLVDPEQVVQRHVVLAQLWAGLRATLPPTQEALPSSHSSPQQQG

T2: IL-18 receptors on HEK-Blue IL-18 reporter cells (UniProt Q13478 19-541; O95256 20-599, limits assumed)
T2 sequence (looked up) 1: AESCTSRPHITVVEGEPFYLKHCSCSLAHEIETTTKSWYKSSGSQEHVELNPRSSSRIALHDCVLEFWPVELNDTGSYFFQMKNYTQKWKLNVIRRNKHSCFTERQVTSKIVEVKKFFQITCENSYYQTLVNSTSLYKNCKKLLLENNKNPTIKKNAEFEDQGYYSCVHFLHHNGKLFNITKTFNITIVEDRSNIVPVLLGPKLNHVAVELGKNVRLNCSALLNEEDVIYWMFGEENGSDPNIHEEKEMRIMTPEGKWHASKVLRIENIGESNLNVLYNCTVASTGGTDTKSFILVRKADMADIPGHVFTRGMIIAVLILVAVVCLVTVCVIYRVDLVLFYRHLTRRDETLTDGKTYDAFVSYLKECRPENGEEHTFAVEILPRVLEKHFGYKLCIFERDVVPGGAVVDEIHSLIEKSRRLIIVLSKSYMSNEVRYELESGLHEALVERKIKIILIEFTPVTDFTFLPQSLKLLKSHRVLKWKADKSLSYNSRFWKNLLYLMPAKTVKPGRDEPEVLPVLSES
T2 sequence (looked up) 2: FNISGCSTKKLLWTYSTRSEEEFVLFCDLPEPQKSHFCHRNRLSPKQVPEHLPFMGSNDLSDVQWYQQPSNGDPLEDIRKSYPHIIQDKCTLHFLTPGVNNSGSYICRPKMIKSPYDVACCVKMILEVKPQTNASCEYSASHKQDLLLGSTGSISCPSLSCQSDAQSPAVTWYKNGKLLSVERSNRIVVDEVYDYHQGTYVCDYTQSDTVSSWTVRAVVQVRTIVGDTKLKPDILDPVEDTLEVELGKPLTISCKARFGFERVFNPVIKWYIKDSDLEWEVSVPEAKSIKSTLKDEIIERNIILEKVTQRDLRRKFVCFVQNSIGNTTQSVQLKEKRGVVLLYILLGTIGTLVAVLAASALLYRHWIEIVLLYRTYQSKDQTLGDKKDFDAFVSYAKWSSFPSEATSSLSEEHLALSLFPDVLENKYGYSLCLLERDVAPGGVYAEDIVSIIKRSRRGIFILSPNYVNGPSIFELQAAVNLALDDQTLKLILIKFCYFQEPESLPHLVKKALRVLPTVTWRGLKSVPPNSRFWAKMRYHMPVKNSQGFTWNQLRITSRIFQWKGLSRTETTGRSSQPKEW

T3: interleukin 18 binding protein (IL-18BP) (UniProt O95998 31-194)
T3 sequence (looked up): T1 sequence (looked up)

T4: IL-18 receptors on HEK-Blue IL-18 reporter cells (UniProt Q13478 19-541; O95256 20-599, limits assumed)
T4 sequence (looked up) 1: T2 sequence (looked up) 1
T4 sequence (looked up) 2: T2 sequence (looked up) 2

B1: IL-18 variant G3P, E6I, K53N, D54W, S55P, T63S, N91L, R104Q (ligand)
chain: YFPKLISKLSVIRNLNDQVLFIDQGNRPLFEDMTDSDMRDNAPRTIFIISMYNWPQPRGMAVSISVKSEKISTLSSENKIISFKEMNPPDLIKDTKSDIIFFQQSVPGHDNKMQFESSSYEGYFLASEKERDLFKLILKKEDELGDRSIMFTVQNED
B2: IL-18 variant G3L, E6Q, T63H, N91M, R104H (ligand)
chain: B1 chain with P3L, I6Q, N53K, W54D, P55S, S63H, L91M, Q104H
B3: IL-18 variant T34M, S36T, D37E, D40T, N41M, K53T, S55W (ligand)
chain: YFGKLESKLSVIRNLNDQVLFIDQGNRPLFEDMMDTEMRTMAPRTIFIISMYTDWQPRGMAVTISVKSEKISTLSSENKIISFKEMNPPDNIKDTKSDIIFFQRSVPGHDNKMQFESSSYEGYFLASEKERDLFKLILKKEDELGDRSIMFTVQNED
B4: IL-18 variant S36E, D37E, D40R, N41G, K53Y, S55F (ligand)
chain: B3 chain with M34T, T36E, T40R, M41G, T53Y, W55F
B5: IL-18 variant T34L, S36V, D40A, N41S, K53G, S55W (ligand)
chain: B3 chain with M34L, T36V, E37D, T40A, M41S, T53G
B6: IL-18 variant K53N, S55Y (ligand)
chain: B3 chain with M34T, T36S, E37D, T40D, M41N, T53N, W55Y
B7: IL-18 variant K53Y, S55G, Q56H (ligand)
chain: B3 chain with M34T, T36S, E37D, T40D, M41N, T53Y, W55G, Q56H
B8: IL-18 variant S7Y, K53H, S55M (ligand)
chain: B3 chain with S7Y, M34T, T36S, E37D, T40D, M41N, T53H, W55M
B9: IL-18 variant K53V, S55Q (ligand)
chain: B3 chain with M34T, T36S, E37D, T40D, M41N, T53V, W55Q
B10: IL-18 variant K53Y, S55V (ligand)
chain: B3 chain with M34T, T36S, E37D, T40D, M41N, T53Y, W55V
B11: IL-18 variant K53Y, S55Y, Q56H (ligand)
chain: B3 chain with M34T, T36S, E37D, T40D, M41N, T53Y, W55Y, Q56H
B12: IL-18 variant K53D, S55Q, P107M (ligand)
chain: B3 chain with M34T, T36S, E37D, T40D, M41N, T53D, W55Q, P107M
B13: IL-18 variant D23G, K53Y, S55Y (ligand)
chain: B3 chain with D23G, M34T, T36S, E37D, T40D, M41N, T53Y, W55Y
B14: IL-18 variant K53N, S55A, R104N, P107A, H109Y (ligand)
chain: B1 chain with P3G, I6E, W54D, P55A, S63T, L91N, Q104N, P107A, H109Y
B15: IL-18 variant K53G, S55P, R104K, H109Y (ligand)
chain: B1 chain with P3G, I6E, N53G, W54D, S63T, L91N, Q104K, H109Y
B16: IL-18 variant K53D, S55Q, H109Y (ligand)
chain: B3 chain with M34T, T36S, E37D, T40D, M41N, T53D, W55Q, H109Y

molecular target: T1, IL-18 binding protein (IL-18BP); assay: cell-based or functional assay

Point of comparison: B2, “Activity, +100 nM BP, DF-1000002” value 0.08. Against it:
- B1 — the same, 0.08

Point of comparison: B1, “Activity, +100 nM BP, DF-5000003” value 0.09. Against it:
- B2 — lower, 0.07

Point of comparison: B1, “Activity, +100 nM BP, DF-25000004” value 0.07. Against it:
- B2 — the same, 0.07

Point of comparison: B2, “Ratio (-BP/+BP), DF-1000005” value 2.02. Against it:
- B1 — lower, 0.91

Point of comparison: B2, “Ratio (-BP/+BP), DF-5000006” value 1.16. Against it:
- B1 — lower, 0.91

Point of comparison: B1, “Ratio (-BP/+BP), DF-25000007” value 0.97. Against it:
- B2 — higher, 1.47

molecular target: T2, IL-18 receptors on HEK-Blue IL-18 …; assay: cell-based or functional assay

Point of comparison: B2, “Activity, No BP, DF-100000” value 0.16. Against it:
- B1 — lower, 0.07

Point of comparison: B2, “Activity, No BP, DF-500000” value 0.09. Against it:
- B1 — lower, 0.08

Point of comparison: B2, “Activity, No BP, DF-2500000” value 0.11. Against it:
- B1 — lower, 0.07

molecular target: T3, interleukin 18 binding protein (IL-18BP); assay: cell-based or functional assay

Point of comparison: B14, “HEK-Blue activity, +100 nM BP, DF-10000” value 0.13. Against it:
- B3 — higher, 0.14
- B4 — higher, 0.16
- B5 — lower, 0.12
- B6 — higher, 0.14
- B7 — higher, 0.3
- B8 — higher, 0.16
- B9 — higher, 0.2
- B10 — higher, 0.16
- B11 — higher, 0.22
- B12 — higher, 0.22
- B13 — lower, 0.11
- B15 — lower, 0.12
- B16 — lower, 0.12

Point of comparison: B4, “HEK-Blue activity, +100 nM BP, DF-100,000” value 0.19. Against it:
- B3 — lower, 0.12
- B5 — lower, 0.12
- B6 — lower, 0.09
- B7 — higher, 0.21
- B8 — lower, 0.15
- B9 — lower, 0.17
- B10 — lower, 0.14
- B11 — higher, 0.2
- B12 — lower, 0.14
- B13 — lower, 0.1
- B14 — lower, 0.12
- B15 — lower, 0.09
- B16 — lower, 0.15

Point of comparison: B11, “HEK-Blue activity, +100 nM BP, DF-1,000,000” value 0.19. Against it:
- B3 — lower, 0.12
- B4 — lower, 0.14
- B5 — lower, 0.14
- B6 — lower, 0.09
- B7 — lower, 0.18
- B8 — lower, 0.18
- B9 — lower, 0.13
- B10 — lower, 0.13
- B12 — lower, 0.13
- B13 — lower, 0.1
- B14 — lower, 0.14
- B15 — lower, 0.09
- B16 — lower, 0.1

Point of comparison: B11, “Ratio (-BP/+BP), DF-10000” value 0.73. Against it:
- B3 — higher, 2.13
- B4 — higher, 1.19
- B5 — higher, 1.81
- B6 — higher, 1.11
- B7 — higher, 0.86
- B8 — higher, 1.33
- B9 — higher, 1
- B10 — higher, 1.03
- B12 — higher, 0.85
- B13 — higher, 2.29
- B14 — higher, 1.64
- B15 — higher, 1.72
- B16 — higher, 1.94

Point of comparison: B13, “Ratio (-BP/+BP), DF-100,000” value 1.09. Against it:
- B3 — higher, 1.79
- B4 — lower, 0.64
- B5 — higher, 1.6
- B6 — lower, 1.02
- B7 — lower, 0.7
- B8 — lower, 0.94
- B9 — lower, 0.81
- B10 — higher, 1.44
- B11 — lower, 0.76
- B12 — lower, 0.97
- B14 — higher, 1.1
- B15 — higher, 1.3
- B16 — higher, 1.36

Point of comparison: B7, “Ratio (-BP/+BP), DF-1,000,000” value 0.63. Against it:
- B3 — higher, 1.63
- B4 — higher, 1.06
- B5 — higher, 0.97
- B6 — higher, 0.96
- B8 — higher, 0.98
- B9 — higher, 0.88
- B10 — higher, 1.27
- B11 — higher, 0.73
- B12 — higher, 1.02
- B13 — higher, 1.13
- B14 — higher, 0.93
- B15 — higher, 1.2
- B16 — higher, 1.27

molecular target: T4, IL-18 receptors on HEK-Blue IL-18 …; assay: cell-based or functional assay

Point of comparison: B11, “HEK-Blue activity, No BP, DF-10000” value 0.16. Against it:
- B3 — higher, 0.29
- B4 — higher, 0.2
- B5 — higher, 0.22
- B6 — the same, 0.16
- B7 — higher, 0.26
- B8 — higher, 0.21
- B9 — higher, 0.2
- B10 — the same, 0.16
- B12 — higher, 0.19
- B13 — higher, 0.25
- B14 — higher, 0.21
- B15 — higher, 0.21
- B16 — higher, 0.23

Point of comparison: B12, “HEK-Blue activity, No BP, DF-100,000” value 0.13. Against it:
- B3 — higher, 0.21
- B4 — lower, 0.12
- B5 — higher, 0.19
- B6 — lower, 0.09
- B7 — higher, 0.15
- B8 — higher, 0.14
- B9 — higher, 0.14
- B10 — higher, 0.2
- B11 — higher, 0.15
- B13 — lower, 0.1
- B14 — the same, 0.13
- B15 — lower, 0.12
- B16 — higher, 0.2

Point of comparison: B15, “HEK-Blue activity, No BP, DF-1,000,000” value 0.1. Against it:
- B3 — higher, 0.19
- B4 — higher, 0.14
- B5 — higher, 0.14
- B6 — lower, 0.08
- B7 — higher, 0.11
- B8 — higher, 0.18
- B9 — higher, 0.11
- B10 — higher, 0.16
- B11 — higher, 0.14
- B12 — higher, 0.13
- B13 — higher, 0.11
- B14 — higher, 0.13
- B16 — higher, 0.13
